The text below walks through data of the Immune Epitope Database (IEDB).

The target in assay [1] is HLA-A*02:01. As to the kind of experiment: IEDB peptide-MHC binding, purified MHC/competitive/fluorescence; ≥ and ≤ were set here for values at or beyond the usual limits of such assays.
The target in assay [2] is HLA-B*15:01. The assay is described as above.
The target of assay [3] is HLA-A*24:02. The description is as above.
Assay [4] deals with HLA-B*57:01. As to the kind of experiment: IEDB peptide-MHC binding, purified MHC/competitive/radioactivity; filed as Kd, often an IC50 or EC50 that approximates it; ≥ and ≤ were set here for values at or beyond the usual limits of such assays.
The target in assay [5] is HLA-B*58:01. The assay is described as above.
Assay [6] concerns the target HLA-B*15:17. The experiment in a line: IEDB peptide-MHC binding, purified MHC/direct/fluorescence; filed as Kd, often an IC50 or EC50 that approximates it; ≥ and ≤ were set here for values at or beyond the usual limits of such assays. As to conditions: source organism: Yellow fever virus.
Assay [7] deals with HLA-B*57:01. The assay is described as above. As to conditions: source organism: Yellow fever virus.
Assay [8] addresses HLA-B*08:02. The assay is described as above. As to conditions: source organism: Vibrio parahaemolyticus AQ3810.
Assay [9] addresses HLA-B*53:01. As to the kind of experiment: IEDB peptide-MHC binding, purified MHC/competitive/radioactivity; filed as Kd, often an IC50 or EC50 that approximates it; ≥ and ≤ were set here for values at or beyond the usual limits of such assays. As to conditions: source organism: Dengue virus 3 Martinique/1243/1999.
In assay [10] the target is HLA-A*03:01. As to the kind of experiment: IEDB peptide-MHC binding, purified MHC/competitive/fluorescence; ≥ and ≤ were set here for values at or beyond the usual limits of such assays.
In assay [11] the target is HLA-A*11:01. The description is as above.
Assay [12] concerns the target HLA-B*07:02. The experiment in a line: IEDB peptide-MHC binding, purified MHC/direct/fluorescence; filed as Kd, often an IC50 or EC50 that approximates it; ≥ and ≤ were set here for values at or beyond the usual limits of such assays.
For assay [13], the target named is HLA-B*15:01. Described as above.
Assay [14] addresses HLA-B*51:01. The assay is described as above.
Assay [15] has as its target HLA-B*27:05. The assay is described as above.
Assay [16] addresses HLA-A*03:01. Described as above.
For assay [17], the target named is HLA-B*40:01. The description is as above.
Assay [18] concerns the target HLA-A*11:01. Described as above.
The target of assay [19] is HLA-A*02:01. Described as above.
For assay [20], the target named is HLA-B*58:01. Described as above.
Assay [21] has as its target HLA-A*01:01. The assay is described as above.
Assay [22] concerns the target HLA-B*44:02. The description is as above.
The target of assay [23] is HLA-A*24:02. The assay is described as above.
The target in assay [24] is HLA-B*18:01. The description is as above.
Assay [25] concerns the target HLA-A*69:01. The description is as above.
Assay [26] deals with HLA-A*32:01. As to the kind of experiment: IEDB peptide-MHC binding, purified MHC/competitive/radioactivity; filed as Kd, often an IC50 or EC50 that approximates it; ≥ and ≤ were set here for values at or beyond the usual limits of such assays.
The target in assay [27] is HLA-A*31:01. The experiment in a line: IEDB peptide-MHC binding, purified MHC/direct/fluorescence; filed as Kd, often an IC50 or EC50 that approximates it; ≥ and ≤ were set here for values at or beyond the usual limits of such assays. As to conditions: source organism: Yersinia pestis.
The target of assay [28] is HLA-A*26:01. The assay is described as above. As to conditions: source organism: Yersinia pestis CA88-4125.
Assay [29] concerns the target HLA-B*46:01. The assay is described as above. As to conditions: source organism: Yersinia pestis.
In assay [30] the target is HLA-A*24:02. As to the kind of experiment: IEDB peptide-MHC binding, purified MHC/competitive/radioactivity; filed as Kd, often an IC50 or EC50 that approximates it; ≥ and ≤ were set here for values at or beyond the usual limits of such assays. As to conditions: source organism: Dengue virus 3 Martinique/1243/1999.
Setting [31] is: source organism: Zaire ebolavirus.
Setting [32] is: source organism: Vaccinia virus Copenhagen.
The mark [33] stands for this setting: source organism: Dengue virus 1 Brazil/97-11/1997.
Where [34] appears, read: source organism: Dengue virus 4 Philippines/H241/1956.
[35] abbreviates: source organism: Dengue virus 2 Jamaica/1409/1983.
Where [36] appears, read: source organism: Dengue virus 3 Martinique/1243/1999.
Setting [37] is: source organism: Sudan ebolavirus.
Where [38] appears, read: source organism: Giardia lamblia ATCC 50803.
Where [39] appears, read: source organism: Escherichia coli O157:H7.
Setting [40] is: source organism: Dengue virus 3 Singapore/8120/1995.
[41] abbreviates: source organism: Lassa virus Josiah.
[42] abbreviates: source organism: Bacillus anthracis.
[43] abbreviates: source organism: Yersinia pestis.

AMNEENRFV: the IC50 (in general, the concentration needed to halve the response being measured) is 6.8 µM in assay [1] (setting [31]) and not below 220 µM in assay [2] (setting [31]).

Regarding ASPMLYQLL, the IC50 in assay [1] (setting [32]) amounted to 39.6 µM; in assay [2] (setting [32]) it was 37.2 µM; in assay [3] (setting [32]), 0.233 µM.

As to CTSQILLMRT, the Kd (as a rule, the free concentration of one partner at which half of the binding sites on the other are occupied at equilibrium, for simple one-to-one binding) in assay [4] (setting [33]) was 2.41 µM; in assay [5] (setting [33]), 17.1 µM.

Consider ESSSNPTIEE, for which the Kd was 2.32 µM in assay [4] (setting [34]) and 9.49 µM in assay [5] (setting [34]).

Take ESWIVDRQW: the Kd in assay [6] worked out at 0.135 µM; in assay [7], 0.0195 µM.

FGSLGGVFTS: the Kd was found to be 2.18 µM in [4] (setting [35]) and 5.33 µM in [5] (setting [35]).

In the case of FLPNPAFIH, the IC50 in assay [1] (source organism: Variola virus) was found to be 2.11 µM; in assay [2] (source organism: Variola virus) it was 25.5 µM; in assay [3] (source organism: Variola virus), 0.497 µM.

For the sequence FLRKHNEGL, the Kd in [8] turned out to be 1.75 µM.

Turning to GATTETPTW, the Kd in assay [4] (setting [36]) is 0.0804 µM; in [9], 0.0692 µM; in [5] (setting [36]) it was 0.00208 µM.

Consider GILGSLGLR, for which the figures for the IC50 in [10] (setting [37]), in assay [11] (setting [37]) and in assay [1] (setting [37]) were 15.2 µM, 3.84 µM and 3.62 µM, respectively.

As to GLITGGRRT, the IC50 in assay [10] (setting [31]) was not below 141 µM; in assay [11] (setting [31]) it was not below 99.4 µM; in assay [1] (setting [31]) it was 14.7 µM; in [3] (setting [31]), 19 µM.

On to HMQISTIGI, for which the IC50 came out at 4.09 µM in [1] (setting [37]), 9.61 µM in assay [2] (setting [37]) and 15.6 µM in [3] (setting [37]).

Take IITPIVFYR: the IC50 in assay [10] (setting [32]) was 1.49 µM; in assay [11] (setting [32]), 0.263 µM; in assay [1] (setting [32]) it was not below 132 µM; in assay [3] (setting [32]), 20.3 µM.

For ISNSVAQAR, the figures for the IC50 in [10] (setting [31]) and in assay [11] (setting [31]) were not below 110 µM and 49.2 µM, respectively.

As for KAIDFLLQR, the IC50 in [10] (setting [31]) is 28.8 µM; in [11] (setting [31]), 0.693 µM; in assay [1] (setting [31]), 9.59 µM; in [3] (setting [31]), not below 161 µM.

For the sequence KAKGSRAIW, the Kd in assay [4] (setting [36]) was 0.0101 µM; in [5] (setting [36]) it was 0.279 µM.

Consider KASFIEVKSC, for which the figures for the Kd in assay [4] (setting [35]) and in assay [5] (setting [35]) were 0.109 µM and 0.37 µM, respectively.

Consider KILTAGLSV, for which the IC50 in assay [10] (setting [31]) is 36.3 µM; in assay [11] (setting [31]), not below 159 µM; in assay [1] (setting [31]) it was 2.56 µM.

For KLRSNALSL, the Kd in assay [12] (setting [38]) was 0.008 µM; in [13] (setting [38]), 0.025 µM; in [14] (setting [38]), not below 20 µM.

As for KPKLKVATL, the Kd in assay [15] (setting [39]) was not below 20 µM; in assay [16] (setting [39]), not below 20 µM; in [17] (setting [39]) it was not below 20 µM; in [18] (setting [39]), not below 20 µM; in assay [19] (setting [39]) it was not below 20 µM; in assay [12] (setting [39]) it was 0.0674 µM. In addition, the Kd in [20] (setting [39]), in assay [13] (setting [39]), in assay [21] (setting [39]), in [22] (setting [39]), in assay [23] (setting [39]) and in [24] (setting [39]) was not below 20 µM each time. In [25] (setting [39]), this sequence gave a dissociation constant Kd not below 20 µM.

With KVMEITAEW, the Kd in assay [4] (setting [40]) stood at 0.0181 µM; in assay [5] (setting [40]) it was 0.00109 µM; in assay [26] (setting [40]) it was 0.0143 µM.

Take LPTKLRPSA: the Kd was 0.103 µM in assay [12] (setting [41]) and not below 20 µM in [14] (setting [41]).

With LQLFLRATT, the IC50 in assay [1] (setting [37]) was not below 125 µM; in assay [2] (setting [37]) it was not below 91.4 µM.

For the sequence PATLLVWHTW, the Kd stood at 1.39 µM in assay [4] (setting [36]), 0.278 µM in [5] (setting [36]) and 3.67 µM in assay [26] (setting [36]).

As to PLARTAKVK, the IC50 was determined as 4.15 µM in assay [10] (setting [31]) and 48.4 µM in assay [11] (setting [31]).

On to PPDGVRGFP, for which the 50% inhibitory concentration (IC50) in assay [10] (setting [37]) amounted to 67.1 µM; in [11] (setting [37]) it was 63.2 µM.

RKAIDFLLR came in with a half-inhibitory concentration (IC50) in assay [10] (setting [37]) not below 212 µM.

Consider RPQHVKKSA, for which the Kd in assay [12] (setting [42]) was 0.0085 µM; in [13] (source organism: Bacillus cereus NVH0597-99) it was not below 20 µM; in assay [14] (setting [42]), not below 20 µM.

For the sequence RVFNGDDVK, the Kd is 4.2 µM in [27]; not below 20 µM in [15] (setting [43]); 1.39 µM in [16] (setting [43]); not below 20 µM in assay [17] (setting [43]); 0.251 µM in [18] (setting [43]); not below 20 µM in assay [19] (setting [43]). Moreover, the Kd in [12] (setting [43]), in assay [20] (setting [43]), in assay [28], in assay [13] (setting [43]), in [21] (setting [43]) and in assay [29] was not below 20 µM each time. Also, the Kd in assay [22] (setting [43]), in assay [23] (setting [43]), in assay [24] (setting [43]) and in [25] (setting [43]) was not below 20 µM throughout.

With SASEAVNDSR, the Kd in [4] (setting [34]) came out at 1.39 µM; in assay [5] (setting [34]), 0.0401 µM.

On to SLTESDMDY, for which the concentration for half-maximal inhibition (IC50) is not below 140 µM in [1] (setting [31]) and 68.3 µM in [2] (setting [31]).

In the case of TSSQQKADWI, the figures for the Kd in [4] (setting [35]) and in assay [5] (setting [35]) were 2.59 µM and 1.07 µM, respectively.

As for WMAEIPLQW, the values for the equilibrium dissociation constant (Kd) in assay [5] (setting [36]) and in assay [30] were 0.0138 µM and 0.174 µM, respectively.

As to YFGPAAEGI, the results for the IC50 in assay [1] (setting [31]), in assay [2] (setting [31]) and in assay [3] (setting [31]) were 60 µM, not below 197 µM and 0.253 µM, respectively.
